# From article PMC10344873 (2023)
# B1: wild type p16-NLuc (mouse p16 tagged with NanoLuc luciferase) [mouse] / 3×Flag-tagged wild type CDK6 [mouse (by the printed Gene ID 12571; not stated in words for CDK6)] (parent complex)
# chain 1: MESAADRLARAAAQGRVHDVRALLEAGVSPNAPNSFGRTPIQVMMMGNVHVAALLLNYGADSNCEDPTTFSRPVHDAAREGFLDTLVVLHGSGARLDVRDAWGRLPLDLAQERGHQDIVRYLRSAGCSLCSAGWSLCTAGNVAQTDGHSFSSSTPRALELRGQSQEQS
# chain 2: MEKDSLSRADQQYECVAEIGEGAYGKVFKARDLKNGGRFVALKRVRVQTSEEGMPLSTIREVAVLRHLETFEHPNVVRLFDVCTVSRTDRETKLTLVFEHVDQDLTTYLDKVPEPGVPTETIKDMMFQLLRGLDFLHSHRVVHRDLKPQNILVTSSGQIKLADFGLARIYSFQMALTSVVVTLWYRAPEVLLQSSYATPVDLWSVGCIFAEMFRRKPLFRGSSDVDQLGKILDIIGLPGEEDWPRDVALPRQAFHSKSAQPIEKFVTDIDELGKDLLLKCLTFNPAKRISAYGALNHPYFQDLERYKDNLNSHLPSNQSTSELNTA
# Variants of: B1
# Assay: LUMIER assay (Flag IP, on-bead NanoLuc bioluminescence); HEK293T cells, transient expression; n = 6 independent experiments; signals normalised on input; parent: 1; read off a plot
row,ratio to parent,Variant
1,~0.18,chain 1 MESAADRLARAAAQSRVHDVRALLEAGVSPNAPNSFGRTPIQVMMMGNVHVAALLLNYGADSNCEDPTTFSRPVHDAAREGFLDTLVVLHGSGARLDVRDAWGRLPLDLAQERGHQDIVRYLRSAGCSLCSAGWSLCTAGNVAQTDGHSFSSSTPRALELRGQSQEQS
2,~0.08,chain 1 MESAADRLARAAAQGRVHDVRALLEAGVSPNAPNSFGRTPIQVMMMDNVHVAALLLNYGADSNCEDPTTFSRPVHDAAREGFLDTLVVLHGSGARLDVRDAWGRLPLDLAQERGHQDIVRYLRSAGCSLCSAGWSLCTAGNVAQTDGHSFSSSTPRALELRGQSQEQS
3,~0.6,chain 1 MESAADRLARAAAQGRVHDVRALLEAGVSPNAPNSFGRTPIQVMMMGNVHVAALLLNYGADSNCEDPTTFSRLVHDAAREGFLDTLVVLHGSGARLDVRDAWGRLPLDLAQERGHQDIVRYLRSAGCSLCSAGWSLCTAGNVAQTDGHSFSSSTPRALELRGQSQEQS

# Variants of: B1
# Assay: as above
# Remark: another data set of the same source
row,ratio to parent,Variant
1,~0.6,chain 2 MEKDSLSRADQQYECVAEIGEGAYGKVFKARDLKNGGRFVALKRVRVQTSEEGMPLSTIREVAVLRHLETFEHPNVVRLFDVCTVSRTDRETKLTLVFEHVDQDLTTYLHKVPEPGVPTETIKDMMFQLLRGLDFLHSHRVVHRDLKPQNILVTSSGQIKLADFGLARIYSFQMALTSVVVTLWYRAPEVLLQSSYATPVDLWSVGCIFAEMFRRKPLFRGSSDVDQLGKILDIIGLPGEEDWPRDVALPRQAFHSKSAQPIEKFVTDIDELGKDLLLKCLTFNPAKRISAYGALNHPYFQDLERYKDNLNSHLPSNQSTSELNTA [chain 2 D110H]
2,~0.5,chain 2 MEKDSLSRADQQYECVAEIGEGAYGKVFKARDLKNGGRFVALKRVRVQTSEEGMPLSTIREVAVLRHLETFEHPNVVRLFDVCTVSRTDRETKLTLVFEHVNQDLTTYLDKVPEPGVPTETIKDMMFQLLRGLDFLHSHRVVHRDLKPQNILVTSSGQIKLADFGLARIYSFQMALTSVVVTLWYRAPEVLLQSSYATPVDLWSVGCIFAEMFRRKPLFRGSSDVDQLGKILDIIGLPGEEDWPRDVALPRQAFHSKSAQPIEKFVTDIDELGKDLLLKCLTFNPAKRISAYGALNHPYFQDLERYKDNLNSHLPSNQSTSELNTA [chain 2 D102N]
